The values that follow come from patent US20220089727A1 (CHANGCHUN GENESCIENCE PHARMACEUTICAL, published 2022).

Broadly, the EC50 is the concentration that produces a half-maximal response. One may read the Kd as the equilibrium constant for the complex coming apart. The term koff denotes the rate constant with which the complex falls apart. In general, kon refers to the second-order rate constant of association.

Assay [1] concerns the target T1, monkey CD47ECD-linker peptide-7his (monkey).
T1 construct: also called Monkey CD47-his
T1 chain: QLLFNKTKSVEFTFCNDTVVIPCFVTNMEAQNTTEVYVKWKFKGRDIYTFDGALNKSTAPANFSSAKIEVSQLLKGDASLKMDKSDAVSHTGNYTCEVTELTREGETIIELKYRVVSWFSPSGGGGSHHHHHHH
The experiment in a line: ELISA, monkey CD47-his coated at 1 µg/ml, cell culture supernatant. A general note: An ELISA detects its analyte on a solid surface through an enzyme-linked reagent.

Assay [2] addresses T2, human CD47-linker peptide-hIgG1Fc (human).
T2 construct: also called Human CD47-hFc; human CD47-hFc
The experiment in a line: competition ELISA: human CD47-hFc coated, blocked ligand human SIRP-his.

In assay [3] the target is T2, human CD47-linker peptide-hIgG1Fc. The experiment in a line: competition ELISA: CD47-hFc coated, antibody titrated against human SIRP-his (competitor), anti-His detection.
For assay [4], the target named is T3, human CD47 (analyte in the Biacore assay) (human, UniProt Q08722 19-139, limits assumed).
T3 construct: also called human CD47 protein
The experiment in a line: SPR (Biacore T200), antibody captured by anti-mouse Fc, human CD47 as analyte. A general note: Surface plasmon resonance follows binding to a sensor surface in real time, without labels.

Assay [5] addresses T4, CD47 on the surface of Jurkat cells (human, UniProt Q08722 19-323).
T4 construct: whole, on cells; also called CD47 on jurkat cell surface; CD47 on cell surface
The experiment in a line: flow cytometry on Jurkat cells, hybridoma supernatant, anti-mouse IgG Fc FITC. For orientation: A flow cytometer gives signals particle by particle.

Assay [6] has as its target T4, CD47 on the surface of Jurkat cells. The experiment in a line: cell-based or functional assay.
The target is the same in assay [7]. The experiment in a line: cell-based or functional assay. This is another data set of the same source.
For assay [8], the target named is T5, human CD47ECD-linker peptide-7his (human, UniProt Q08722 19-139).
T5 construct: also called hCD47-his; human CD47-his
The experiment in a line: ELISA, hCD47-his coated at 1 µg/ml, cell culture supernatant.

B1: 059-1.30.1 (antibody, mouse IgG1, V domains shown)
VH: EVQLQQSGPELVKPGASVRMSCKASGYTFTNYVMHWVKQKPGQGLEWIGYINPYNDGTKYSEKFKGKATLTSDKSSITAYMELSSLTSEDSAVYYCAKGGLFTFDYWGQGTTLTVSS
VL: DVVMTQTPLSLPVSLGDQASISCRSSQSLVHSKGNTYLHWYLQKPGQSPKLLIYRVSNRFSGVPDRFSGSGSGTDFTLKISRVEAEDLGVYFCSQSTHVPFTFGSGTKLEIK
notes: also called 059-1.30.1 purified antibody
The molecule B1 gave an OD450 in assay [1] of 4 OD450. Further, the “IC50 (read off the curve)” value in assay [2] was around 1 µg/mL. In assay [3], this molecule returned a concentration for a half-maximal effect (EC50) of 1030 nM. In assay [4], the dissociation constant (Kd) was found to be 30.1 nM, the off-rate constant (koff) came to 0.0128 s⁻¹ and the kon amounted to 424000 M⁻¹ s⁻¹. The same molecule registered an MFI in assay [5] of 9950 MFI. In assay [6], the “Apoptotic rate (%)” value was found to be 48%. In assay [7], the phagocytic index is 70 Jurkat cells phagocytized per 100 macrophages. In assay [8], this molecule had an OD450 of 4 OD450.

B2: 059-1.51.2 (antibody, mouse IgM, V domains shown)
VH: EVQLQQSGPELVKPGASVKMSCKASGYTFTNYVMHWMKQKPGQGLEWIGYINPYNDDTKYNEKFKDRATLTSDKSSSTAYMELSSLTSEDSAVYYCAKGGYYSMDYWGQGTSVTVSS
VL: DVVMTQTPLSLPVSLGDQASISCRSSQSLVHSKGNTYLHWYLQKPGQSPKLLIYKVSNRFSGVPDRFSGSGSGTDFTLKISRVEAEDLGVYFCSQSTHVPFTFGSGTKLEIK
notes: Mouse hybridoma antibody; light chain type kappa
On to B2, for which the OD450 in assay [1] came to 0.634 OD450. In assay [4], this molecule had a Kd of 27.3 nM, a koff of 0.0101 s⁻¹ and an on-rate constant (kon) of 370000 M⁻¹ s⁻¹. Besides, in assay [5], the MFI was determined as 144 MFI. The same molecule registered an OD450 in assay [8] of 0.771 OD450.

B3: 059-1.43.1 (antibody, mouse IgG1, V domains shown)
VH: QVQLQQSGAELVRPGASVTLSCKASGYTFTDYEMHWVKQTPVHGLEWIGAIDPETGGTAYNQKFKGKATLTADKSSSTAYMELRSLTSEDSAVYYCTRGTPYAMDYWGQGTSVTVSS
VL: DVVMTQTPLSLPVSLGDQASISCRSSQSLVHSNGNTYLHWYLQKPGQSPKLLIYKVSNRFSGVPDRFSGSGSGTDFTLKISRVEAEDLGVYFCSQSTHVPWTFGGGTKLEIK
notes: also called 059-1.43.1 purified antibody
B3 gave an OD450 in assay [1] of 4 OD450. The “IC50 (read off the curve)” value in assay [2] was around 0.9 µg/mL. The molecule also had a concentration giving a half-maximal response (EC50) in assay [3] of 850 nM. In assay [4], this molecule yielded a Kd of 28.3 nM, a koff of 0.00666 s⁻¹ and an on-rate constant (kon) of 236000 M⁻¹ s⁻¹. Besides, in assay [5], the MFI came to 18500 MFI. For the same molecule, in assay [6], the “Apoptotic rate (%)” value was found to be 37%. Besides, in assay [7], the phagocytic index is 79 Jurkat cells phagocytized per 100 macrophages. Further, the OD450 in assay [8] is 4 OD450.

B4: 059-1.11.1 (antibody, mouse IgM, V domains shown)
VH: QVQLQQSGAELVRPGASVTLSCKASGYTFTDYEMHWVKQTPVHGLEWIGAIDPETGGTAYNQKFKGKATLTADKSSSTAYMELRSLTSEDSAVYYCTRGTPYAMDYWGQGTSVTVSS
VL: DVVMTQTPLSLPVSLGDQASISCRSSQSLVHSNGNTYLHWYLQKPGQSPKLLIYKVSNRFSGVPERFSGSGSGTDFTLKISRVEAEDLGVYFCSQSTHVPWTFGGGTKLEIK
notes: Mouse hybridoma antibody; the subclass paragraph gives the light chain type as kappa; also called 059-1.11.1 purified antibody
In assay [1], B4 yielded an OD450 of 4 OD450. For the same molecule, in assay [3], the midpoint of the response, the EC50, lay at 2340 nM. In assay [4], this molecule returned a Kd of 15.5 nM, a koff of 0.00402 s⁻¹ and a kon of 260000 M⁻¹ s⁻¹. Also, the MFI in assay [5] was determined as 6630 MFI. The molecule further displayed an OD450 in assay [8] of 3.67 OD450.

B5: 059-1.100.5 (antibody, mouse IgM, V domains shown)
VH: QVQLQQSGAELVRPGASVTLSCKASGYTFTDYEMHWVKQTPVHGLEWIGAIDPETGGTAYNQNFKGKATLTADKSSSTAYMELRSLTSEDSAVYYCTRGTPYAMDYWGQGTSVTVSS
VL: DVVMTQTPLSLPVSLGDQASISCRSSQSLVHSNGNTYLHWYLQKPGQSPKLLIYKVSNRFSGVPDRFSGSGSGTDFTLKISRVEAEDLGVYFCSQSTHVPWTFGGGTKLEIK
notes: Mouse hybridoma antibody; light chain type kappa; also called 059-1.100.5 purified antibody
Turning to B5, the OD450 in assay [1] turned out to be 0.617 OD450. Further, in assay [4], the Kd was 44 nM, the koff is 0.0069 s⁻¹ and the kon is 157000 M⁻¹ s⁻¹. In assay [5], this molecule returned an MFI of 216 MFI. In addition, in assay [8], the OD450 was found to be 0.81 OD450.

B6: B6H12 (commercialized CD47 antibody, purchased from Abcam, catalog No. ab3283) (antibody)
chain: EVQLVESGGDLVKPGGSLKLSCAASGFTFSGYGMSWVRQTPDKRLEWVATITSGGTYTYYPDSVKGRFTISRDNAKNTLYLQIDSLKSEDTAIYFCARSLAGNAMDYWGQGTSVTVSSGGGGSGGGGSGGGGSDIVMTQSPATLSVTPGDRVSLSCRASQTISDYLHWYQQKSHESPRLLIKFASQSISGIPSRFSGSGSGSDFTLSINSVEPEDVGVYYCQNGHGFPRTFGGGTKLEIK
In the case of B6, the “IC50 (read off the curve)” value in assay [2] is around 1 µg/mL. Further, in assay [4], binding was put at a Kd of 27.5 nM, the off-rate (koff) was found to be 0.00364 s⁻¹ and the on-rate (kon) is 132000 M⁻¹ s⁻¹. Besides, in assay [6], the “Apoptotic rate (%)” value was found to be 8%. In addition, the phagocytic index in assay [7] was 20 Jurkat cells phagocytized per 100 macrophages.

B7: 059-1.20.1 (antibody, mouse IgG1, V domains shown)
VH: EVQLQQSGPELVKPGASVNMSCKASGYTFTNYFLHWVKQKPGQGLEWIGYINPYNDGTNYNENFKGKATLTSDKSSSTAYMELSSLTSEDSAVYYCAKGGWFSMDYWGQGTSVTVSS
VL: DVVMTQTPLSLPVSLGDQASISCRSSQSLVHSNGKTYLQWYLQKPGQSPKLLIYKVSNRFSGVPDRFSGSGSGTDFTLKISRVEAEDLGVYFCSQSTHVYTFGGGTKLEIK
notes: also called 059-1.20.1 purified antibody
B7 displayed an OD450 in assay [1] of 4 OD450. In addition, the “IC50 (read off the curve)” value in assay [2] was around 1 µg/mL. Further, the EC50 in assay [3] is 1190 nM. In assay [4], this molecule had a Kd of 25.3 nM, a koff of 0.00548 s⁻¹ and an on-rate constant (kon) of 217000 M⁻¹ s⁻¹. Also, the MFI in assay [5] was 15300 MFI. Also, the “Apoptotic rate (%)” value in assay [6] stood at 33%. For the same molecule, in assay [7], the phagocytic index is 43 Jurkat cells phagocytized per 100 macrophages. In assay [8], this molecule showed an OD450 of 4 OD450.

B8: 059-1.82.1 (antibody, mouse IgG3, V domains shown)
VH: EVQLQQSGPELVKPGASVKMSCKASGYTFTNYVMHWVKQKPGQGLEWIGYINPYNDGTNYNEKFKGKATLTSDKSSSTAYMELSSLTSEDSAVYYCAKGGWFSMDYWGQGTSVTVSS
VL: DVVMTQTPLSLPVSLGDQASISCRSSQSLVHSNGKTYLQWYLQKPGQSPKLLIYKVSNRFSGVPDRFSGSGSGTDFTLKISRVEAEDLGVYFCSQSTHVYTFGGGTKLEIK
Take B8: the OD450 in assay [1] turned out to be 3.9 OD450. Also, the “IC50 (read off the curve)” value in assay [2] is around 1 µg/mL. The molecule also showed an EC50 in assay [3] of 1030 nM. In assay [4], this molecule displayed a dissociation constant (Kd) of 14.2 nM, a koff of 0.00364 s⁻¹ and an association rate constant (kon) of 256000 M⁻¹ s⁻¹. In assay [5], this molecule had an MFI of 9550 MFI. Further, the “Apoptotic rate (%)” value in assay [6] was 24%. The phagocytic index in assay [7] is 74 Jurkat cells phagocytized per 100 macrophages. The same molecule registered an OD450 in assay [8] of 4 OD450.
